Data reported in article doi:10.1101/2021.11.26.470043.

Target: ACE-2 receptor on the surface of Vero-E6 cells (African green monkey (endogenous in Vero-E6))
Assay: flow cytometry on cells

## commercially available recombinant RBD (from UniProt P0DTC2) (domain or fragment)
  percent of cells bound to RBD: 78%

## recombinant SARS-CoV-2 RBD (Pro330-Ser530) expressed in Sf9 insect cells (from UniProt P0DTC2 330-530) (domain or fragment)
  percent of cells bound to RBD: 60%
